Laboratory results from patent publication US20090018316A1 (IMMUNEX, published 2009).

Experiments:
[1] = biological target: T1, native human IL-15 receptor on human cells (human, UniProt Q13261 31-267); assay: radiolabeled IL-15 binding to the glioblastoma cell line A-172
T1 construct: whole, on cells; Endogenous receptor; its subunits on these cells were not defined; Clone W5 was later cloned from W126-VA4 cells, and clones A212 and A133 from A172 cells
Text: (§1) Various human cell lines and tissues were screened for the ability to bind radiolabeled IL-15 substantially as described in Example 1. High affinity binding was observed on activated peripheral blood mononuclear cells, activated monocytes and some EBV-transformed cell lines.

[2] = biological target: T1, native human IL-15 receptor on human …; assay: radiolabeled IL-15 binding to the human fibroblast line W126-VA4
Text: as §1

[3] = biological target: T2, murine IL-15R (full length, cDNA clone D1-4-D5) (murine, UniProt Q60819 33-263); assay: equilibrium binding of 125I-simian IL-15 to D10 cells (native IL-15R)
T2 construct: Cell-surface receptor: recombinant on COS-7 and 32D transfectants, native or endogenous on D10, 32D-01, 32Dmβ-5 and CTLL.2 cells; 32D lines also carry IL-2Rα and γc, and some carry IL-2Rβ; the cell line is named under assay; also called murine IL-15Rα; IL-15Rα
T2 sequence: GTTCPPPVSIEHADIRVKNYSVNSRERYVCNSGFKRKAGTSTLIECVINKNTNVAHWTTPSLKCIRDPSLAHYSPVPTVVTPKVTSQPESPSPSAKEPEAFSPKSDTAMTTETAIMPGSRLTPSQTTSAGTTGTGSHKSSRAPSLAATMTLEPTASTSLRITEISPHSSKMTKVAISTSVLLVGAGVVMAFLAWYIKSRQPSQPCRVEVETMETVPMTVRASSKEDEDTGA

[4] = biological target: T1, native human IL-15 receptor on human …; assay: radiolabeled IL-15 binding to vascular endothelial cells of venous origin
Text: as §1

[5] = biological target: T1, native human IL-15 receptor on human …; assay: radiolabeled IL-15 binding to vascular endothelial cells of arterial origin
Text: as §1

[6] = biological target: T2, murine IL-15R (full length, cDNA clone …); assay: 125I-IL-15 binding to monolayers of COS cells transfected with clone D1-4-D5
Protocol: D. Recombinant IL-15R Binding. Plasmid DNA from IL-15 receptor expression plasmid was used to transfect a sub-confluent layer of monkey COS-7 cells using DEAE-dextran followed by chloroquine treatment, as described by Luthman et al., Nucl Acids Res. 11:1295 (1983) and McCutchan et al., J. Natl. Cancer Inst. 41:351 (1968). The cells were then grown in culture for three days to permit transient expression of the inserted sequences. After three days, the cell monolayers were assayed for ¹²⁵I-IL-15 binding essentially as described by Park, et al., J. Exp. Med. 166:476 (1987). Non-specific binding of ¹²⁵I-IL-15 was measured in the presence of 200-fold or greater excess of unlabeled IL-15.

[7] = biological target: T2, murine IL-15R (full length, cDNA clone …); assay: equilibrium binding of 125I-simian IL-15 to parental 32D-01 cells (endogenous IL-15Rα)
[8] = biological target: T2, murine IL-15R (full length, cDNA clone …); assay: equilibrium binding of 125I-simian IL-15 to 32Dm15Rα-102 cells (transfected with IL-15Rα)
[9] = biological target: T2, murine IL-15R (full length, cDNA clone …); assay: equilibrium binding of 125I-simian IL-15 to 32Dmβ-5 cells (sites ascribed to endogenous IL-15Rα)
[10] = biological target: T2, murine IL-15R (full length, cDNA clone …); assay: equilibrium binding of 125I-simian IL-15 to 32Dmβm15Rα-3 cells (recombinant IL-15Rα and IL-2Rβ, γc constitutive)
[11] = biological target: T3, complexes of murine β and γc (IL-2Rβ and common γ chain) in the absence of the IL-15Rα chain (murine, UniProt P16297 27-539; P34902 23-369); assay: equilibrium binding of 125I-simian IL-15 to 32Dmβ-5 cells: no IL-15 binding sites beyond those of the 32D-01 parent line
T3 construct: whole, on cells; On 32Dmβ-5 cells, which also express IL-2Rα and about 40 sites per cell of endogenous IL-15Rα; also called murine IL-2Rβ/γc; 32Dmβ-5 cells
T3 sequence (looked up) 1: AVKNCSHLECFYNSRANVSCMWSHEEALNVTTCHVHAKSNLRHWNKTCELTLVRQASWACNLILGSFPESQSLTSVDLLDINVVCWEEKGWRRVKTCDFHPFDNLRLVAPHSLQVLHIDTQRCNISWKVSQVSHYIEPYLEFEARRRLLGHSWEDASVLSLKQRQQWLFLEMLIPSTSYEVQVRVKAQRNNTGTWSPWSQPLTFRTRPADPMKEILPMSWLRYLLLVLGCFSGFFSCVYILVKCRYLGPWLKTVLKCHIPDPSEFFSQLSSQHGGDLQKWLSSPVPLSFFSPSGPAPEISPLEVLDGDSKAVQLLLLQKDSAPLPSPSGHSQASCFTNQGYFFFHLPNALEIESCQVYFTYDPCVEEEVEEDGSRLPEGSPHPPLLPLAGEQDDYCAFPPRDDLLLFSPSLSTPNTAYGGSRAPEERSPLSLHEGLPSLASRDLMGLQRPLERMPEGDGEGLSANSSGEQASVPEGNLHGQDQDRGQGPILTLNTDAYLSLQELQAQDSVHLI
T3 sequence (looked up) 2: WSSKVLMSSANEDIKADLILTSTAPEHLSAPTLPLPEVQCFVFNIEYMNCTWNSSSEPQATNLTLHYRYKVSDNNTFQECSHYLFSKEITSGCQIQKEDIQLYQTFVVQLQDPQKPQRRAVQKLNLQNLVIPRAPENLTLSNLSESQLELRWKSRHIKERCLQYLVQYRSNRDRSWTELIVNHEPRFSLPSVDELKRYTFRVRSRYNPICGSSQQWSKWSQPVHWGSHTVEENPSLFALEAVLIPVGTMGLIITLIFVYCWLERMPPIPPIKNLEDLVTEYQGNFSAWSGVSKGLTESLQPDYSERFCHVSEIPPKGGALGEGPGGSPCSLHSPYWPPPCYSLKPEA

T1 sequence (Q13261 31-267): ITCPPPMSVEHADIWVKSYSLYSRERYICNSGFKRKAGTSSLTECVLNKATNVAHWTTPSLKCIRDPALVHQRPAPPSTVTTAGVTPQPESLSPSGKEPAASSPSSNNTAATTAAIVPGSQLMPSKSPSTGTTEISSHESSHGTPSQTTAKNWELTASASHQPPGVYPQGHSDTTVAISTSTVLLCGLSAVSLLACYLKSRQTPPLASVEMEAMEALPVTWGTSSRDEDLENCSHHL

Kd [1]: 0.05 to 0.138 nM
Kd [2]: 0.027 nM
Ka [3]: 1.3e+11 M⁻¹
Kd [4]: 0.033 nM
Kd [5]: 0.163 nM
Kd [6]: 1 to 2.2 nM
Ka [7]: 1.4e+11 M⁻¹
Ka [8]: 1.5e+11 M⁻¹
Ka [9]: 1.9e+11 M⁻¹
Ka [10]: 2.2e+11 M⁻¹
binding result [11]: no binding
B1: Recombinant flag simian IL-15 expressed in yeast (ligand)
chain: DYKDDDDKNWVNVISDLKKIEDLIQSMHIDATLYTESDVHPSCKVTAMKCFLLELQVISHESGDTDIHDTVENLIILANNILSSNGNITESGCKECEELEEKNIKEFLQSFVHIVQMFINTS
modifications: radioiodinated (125I, enzymobead iodination reagent); labelled residues not stated
notes: Flag-tagged simian IL-15 made in yeast, purified and radioiodinated; also called 125I-IL-15; 125I-simian IL-15
